B1: Centrosomal protein of 68 kDa (Homo sapiens), Q76N32 (parent)
chain: MALGEEKAEAEASEDTKAQSYGRGSCRERELDIPGPMSGEQPPRLEAEGGLISPVWGAEGIPAPTCWIGTDPGGPSRAHQPQASDANREPVAERSEPALSGLPPATMGSGDLLLSGESQVEKTKLSSSEEFPQTLSLPRTTTICSGHDADTEDDPSLADLPQALDLSQQPHSSGLSCLSQWKSVLSPGSAAQPSSCSISASSTGSSLQGHQERAEPRGGSLAKVSSSLEPVVPQEPSSVVGLGPRPQWSPQPVFSGGDASGLGRRRLSFQAEYWACVLPDSLPPSPDRHSPLWNPNKEYEDLLDYTYPLRPGPQLPKHLDSRVPADPVLQDSGVDLDSFSVSPASTLKSPTNVSPNCPPAEATALPFSGPREPSLKQWPSRVPQKQGGMGLASWSQLASTPRAPGSRDARWERREPALRGAKDRLTIGKHLDMGSPQLRTRDRGWPSPRPEREKRTSQSARRPTCTESRWKSEEEVESDDEYLALPARLTQVSSLVSYLGSISTLVTLPTGDIKGQSPLEVSDSDGPASFPSSSSQSQLPPGAALQGSGDPEGQNPCFLRSFVRAHDSAGEGSLGSSQALGVSSGLLKTRPSLPARLDRWPFSDPDVEGQLPRKGGEQGKESLVQCVKTFCCQLEELICWLYNVADVTDHGTAARSNLTSLKSSLQLYRQFKKDIDEHQSLTESVLQKGEILLQCLLENTPVLEDVLGRIAKQSGELESHADRLYDSILASLDMLAGCTLIPDKKPMAAMEHPCEGV

The variants in this assay derive from B1. The following applies: with fbw1a_human BTRC.
With S332A;D337A, the “effect of a mutation on the interaction” value is “disrupting interaction strength”.
On to D337A, for which the “effect of a mutation on the interaction” value is given as “decreasing interaction strength”.
As to S332A, the “effect of a mutation on the interaction” value is “disrupting interaction strength”.

These data come from IntAct's records for PubMed 25503564.
